Results on 17 molecules are retold here after patent publication US20200291070A1.

The IC50 is the point on the concentration scale where inhibition reaches its midpoint.

Numbered stars: 1 amine (or outer) side, 2 acyl side, 3 side chain; on linkers, the order of the positions; unused ones are H or OH. Bridge positions count the residues as written; N and C are the ends. Square brackets hold non-standard residues; d marks the D form. Ends that are not written are not given here. Tm = trimesic acid, bicyclized on Tm at the N-terminus; Trimesoyl = O=C(c1cc(C(=O)[*:2])cc(C(=O)[*:3])c1)[*:1]; 2Nal = N[C@@H](Cc1ccc2ccccc2c1)C(=O)O; Dap = NC[C@H](N)C(=O)O; βAla = NCCC(=O)O A value given as a limit tells only on which side of the number the result lay.

The target in experiment [1] is Recombinant GST-NEMO (from plasmid pGEX4T3-NEMO(1-196)) (UniProt Q9Y6K9). Briefly: HTRF competition against biotin-IKKβKK/RR(701-745) on GST-NEMO. In general terms: Time-resolved FRET reads energy transfer from a long-lived donor to a nearby acceptor.
Recombinant GST-NEMO (from plasmid pGEX4T3-NEMO(1-196)), sequence (Q9Y6K9 1-196): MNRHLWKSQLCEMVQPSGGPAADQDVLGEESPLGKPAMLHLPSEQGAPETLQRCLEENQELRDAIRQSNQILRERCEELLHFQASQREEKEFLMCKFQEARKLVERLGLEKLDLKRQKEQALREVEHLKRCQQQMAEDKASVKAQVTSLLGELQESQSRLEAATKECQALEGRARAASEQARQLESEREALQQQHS
The target is the same in experiment [2]. Briefly: HTRF competition against biotin-IKKβKK/RR(701-745) on GST-NEMO; lower end tied to peptide 2 by the same paragraph.
The target is the same in experiment [3]. Nature of the experiment: HTRF competition IC50 against peptide 7.
For experiment [4] the target is unchanged. Briefly: HTRF competition IC50, peptide 7 against peptide 6.
Experiment [5] has the same target. Nature of the experiment: HTRF competition IC50 against peptide 7; lower end tied to peptide 13 by Table 5 (1.7 vs 1.0 µM).
The target is the same in experiment [6]. Briefly: HTRF competition IC50 against peptide 7; upper end tied to peptide 12 by Table 5 (3.0 vs 1.0 µM).

“peptide 19, Tm(GWIYA)Δ(FΦRrRΔ)-BBK (as printed)”: in experiment [1], the IC50 was 1200 nM.

In the case of Trimesoyl-GWIYA[Dap]F[2Nal]A[dR]R[Dap][βAla][βAla]K (linker N-6-12 via Tm) [peptide 17, Tm(GWIYA)Δ(FΦArRΔ)-BBK], the concentration for half-maximal inhibition (IC50) in experiment [1] came to 1100 nM.

Regarding Trimesoyl-GWIY[Dap]F[2Nal]RRR[Dap][βAla][βAla]K (linker N-5-11 via Tm) [peptide 2, Tm(GWIY)Δ(FΦRRRΔ)-BBK], the IC50 in experiment [1] is 3400 nM; in experiment [2], 3400 to 28000 nM.

On to Trimesoyl-AGWIY[Dap]F[2Nal]R[dR]R[Dap][βAla][βAla]K (linker N-6-12 via Tm) [peptide 9, Tm(AGWIY)Δ(FΦRrRΔ)-BBK], for which the 50% inhibitory concentration (IC50) in experiment [1] was found to be 2200 nM.

Take Trimesoyl-GWIYA[Dap]A[2Nal]R[dR]R[Dap][βAla][βAla]K (linker N-6-12 via Tm) [peptide 15, Tm(GWIYA)Δ(AΦRrRΔ)-BBK]: the IC50 in experiment [1] amounted to 1900 nM.

Consider Trimesoyl-GAIAA[Dap]F[2Nal]R[dR]R[Dap][βAla][βAla]K (linker N-6-12 via Tm) [peptide 20, Tm(GAIAA)Δ(FΦRrRΔ)-BBK], for which the IC50 in experiment [1] came out at 16000 nM. For the same molecule, the fold lower NEMO-binding affinity (against peptide 7) in experiment [3] came out at 16 fold.

In the case of Trimesoyl-GWIYA[Dap]F[2Nal]R[dR]R[Dap][βAla][βAla]K (linker N-6-12 via Tm) [peptide 7, Tm(GWIYA)Δ(FΦRrRΔ)-BBK], the half-inhibitory concentration (IC50) in experiment [1] worked out at 1000 nM. The fold increase in binding affinity (against peptide 6) in experiment [4] was 5.9 fold.

On to Trimesoyl-GWIY[Dap]F[2Nal]R[dR]R[Dap][βAla][βAla]K (linker N-5-11 via Tm) [peptide 6, Tm(GWIY)Δ(FΦRrRΔ)-BBK], for which, in experiment [1], the IC50 stood at 5900 nM.

For the molecule Trimesoyl-[dA]GWIY[Dap]F[2Nal]R[dR]R[Dap][βAla][βAla]K (linker N-6-12 via Tm) [peptide 10, Tm(aGWIY)Δ(FΦRrRΔ)-BBK], the IC50 in experiment [1] is 2300 nM.

On to Trimesoyl-AWIYA[Dap]F[2Nal]R[dR]R[Dap][βAla][βAla]K (linker N-6-12 via Tm) [peptide 11, Tm(AWIYA)Δ(FΦRrRΔ)-BBK], for which the IC50 in experiment [1] turned out to be 1200 nM.

With Trimesoyl-GWIAA[Dap]F[2Nal]R[dR]R[Dap][βAla][βAla]K (linker N-6-12 via Tm) [peptide 14, Tm(GWIAA)Δ(FΦRrRΔ)-BBK], in experiment [1], the IC50 amounted to 2800 nM.

In the case of Trimesoyl-GWAYA[Dap]F[2Nal]R[dR]R[Dap][βAla][βAla]K (linker N-6-12 via Tm) [peptide 13, Tm(GWAYA)Δ(FΦRrRΔ)-BBK], the fold decrease in potency (against peptide 7) in experiment [5] lay within 2 to 3 fold. Moreover, the IC50 in experiment [1] is 1700 nM.

On to Trimesoyl-GAAAA[Dap]F[2Nal]R[dR]R[Dap][βAla][βAla]K (linker N-6-12 via Tm) [peptide 21, Tm(GAAAA)Δ(FΦRrRΔ)-BBK], for which the fold lower NEMO-binding affinity (against peptide 7) in experiment [3] was greater than 100 fold.

On to Trimesoyl-GWIYA[Dap]F[2Nal]R[dA]R[Dap][βAla][βAla]K (linker N-6-12 via Tm) [peptide 18, Tm(GWIYA)Δ(FΦRaRΔ)-BBK], for which, in experiment [1], the IC50 is 2100 nM.

Trimesoyl-GWIY[Dap]F[2Nal]RRRR[Dap][βAla][βAla]K (linker N-5-12 via Tm) [peptide 3, Tm(GWIY)Δ(FΦRRRRΔ)-BBK]: the 50% inhibitory concentration (IC50) in experiment [1] worked out at 1500 nM.

Regarding Trimesoyl-GWIY[dA][Dap]F[2Nal]R[dR]R[Dap][βAla][βAla]K (linker N-6-12 via Tm) [peptide 8, Tm(GWIYa)Δ(FΦRrRΔ)-BBK], the IC50 in experiment [1] was 2900 nM.

On to Trimesoyl-GAIYA[Dap]F[2Nal]R[dR]R[Dap][βAla][βAla]K (linker N-6-12 via Tm) [peptide 12, Tm(GAIYA)Δ(FΦRrRΔ)-BBK], for which the IC50 in experiment [1] came out at 3000 nM. The fold decrease in potency (against peptide 7) in experiment [6] fell in the range of 2 to 3 fold.
